Assay results: PMC4686794, “Obesity-related known and candidate SNP markers can significantly change affinity of TATA-binding protein for human gene promoters”

How the values were obtained:
Settings in all cases: protein: recombinant; label: 32P on both strands; blunt
[1] = molecular target: T1, TATA-binding protein (TBP) (Homo sapiens, UniProt P20226 1-339); experiment: EMSA (kinetic, kd/ka); 5 mM Mg2+; ka 30e3 M-1s-1, kd 6e-4 s-1; 20 mM HEPES-KOH pH 7.6, 5 mM MgCl2, 70 mM KCl, 1 mM DTT, 100 ug/mL BSA, 0.01% NP-40, 5% glycerol, 25 C; 0.3 nM active TBP, ODN 10-60 nM
T1 sequence (P20226 whole entry): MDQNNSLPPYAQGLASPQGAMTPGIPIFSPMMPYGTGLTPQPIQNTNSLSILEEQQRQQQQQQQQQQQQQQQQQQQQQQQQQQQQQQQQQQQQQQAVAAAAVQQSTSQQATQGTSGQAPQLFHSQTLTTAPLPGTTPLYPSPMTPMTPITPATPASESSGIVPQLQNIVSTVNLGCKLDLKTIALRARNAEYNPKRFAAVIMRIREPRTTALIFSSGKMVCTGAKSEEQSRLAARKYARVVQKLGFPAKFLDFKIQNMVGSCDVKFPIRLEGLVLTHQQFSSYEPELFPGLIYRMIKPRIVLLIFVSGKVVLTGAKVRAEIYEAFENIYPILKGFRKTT

[2] = molecular target: T1, TATA-binding protein (TBP); experiment: EMSA (kinetic, kd/ka); 5 mM Mg2+; ka 70e3 M-1s-1, kd 5e-4 s-1; 20 mM HEPES-KOH pH 7.6, 5 mM MgCl2, 70 mM KCl, 1 mM DTT, 100 ug/mL BSA, 0.01% NP-40, 5% glycerol, 25 C; 0.3 nM active TBP, ODN 10-60 nM
[3] = molecular target: T1, TATA-binding protein (TBP); experiment: EMSA (kinetic, kd/ka); 5 mM Mg2+; ka 2.3e3 M-1s-1, kd 1.8e-4 s-1; 20 mM HEPES-KOH pH 7.6, 5 mM MgCl2, 70 mM KCl, 1 mM DTT, 100 ug/mL BSA, 0.01% NP-40, 5% glycerol, 25 C; 0.3 nM active TBP, ODN 10-60 nM
[4] = molecular target: T1, TATA-binding protein (TBP); experiment: EMSA (kinetic, kd/ka); 5 mM Mg2+; ka 5.6e3 M-1s-1, kd 13.0e-4 s-1; 20 mM HEPES-KOH pH 7.6, 5 mM MgCl2, 70 mM KCl, 1 mM DTT, 100 ug/mL BSA, 0.01% NP-40, 5% glycerol, 25 C; 0.3 nM active TBP, ODN 10-60 nM
[5] = molecular target: T1, TATA-binding protein (TBP); experiment: EMSA (kinetic, kd/ka); 5 mM Mg2+; ka 3.5e3 M-1s-1, kd 1.5e-4 s-1; 20 mM HEPES-KOH pH 7.6, 5 mM MgCl2, 70 mM KCl, 1 mM DTT, 100 ug/mL BSA, 0.01% NP-40, 5% glycerol, 25 C; 0.3 nM active TBP, ODN 10-60 nM

B1: GCG -41g (rs183433761 minor) (dsDNA)
DNA 1: AGCTGGAGAGTGTATAAAAGCAGTGC
DNA 2: GCACTGCTTTTATACACTCTCCAGCT
Kd [1]: 18 nM

B2: GCG WT (dsDNA)
DNA 1: AGCTGGAGAGTATATAAAAGCAGTGC
DNA 2: GCACTGCTTTTATATACTCTCCAGCT
Kd [2]: 8 nM

B3: LEP WT (dsDNA)
DNA 1: ATCGGGCCGCTATAAGAGGGGCGGGC
DNA 2: GCCCGCCCCTCTTATAGCGGCCCGAT
Kd [3]: 78 nM

B4: LEP -35g (rs201381696 minor) (dsDNA)
DNA 1: ATCGGGCCGCTGTAAGAGGGGCGGGC
DNA 2: GCCCGCCCCTCTTACAGCGGCCCGAT
Kd [4]: 232 nM

B5: LEP -38a (rs200487063 minor) (dsDNA)
DNA 1: ATCGGGCCACTATAAGAGGGGCGGGC
DNA 2: GCCCGCCCCTCTTATAGTGGCCCGAT
Kd [5]: 43 nM
